Article PMC4120998 (Journal of the American Chemical Society, 2014)

Molecular target: CXCR4 on human Jurkat cells (Homo sapiens (endogenous, Jurkat cells), UniProt P61073)
Experiment: flow cytometry on cells

Chain of CXCR4 on human Jurkat cells (P61073 whole entry): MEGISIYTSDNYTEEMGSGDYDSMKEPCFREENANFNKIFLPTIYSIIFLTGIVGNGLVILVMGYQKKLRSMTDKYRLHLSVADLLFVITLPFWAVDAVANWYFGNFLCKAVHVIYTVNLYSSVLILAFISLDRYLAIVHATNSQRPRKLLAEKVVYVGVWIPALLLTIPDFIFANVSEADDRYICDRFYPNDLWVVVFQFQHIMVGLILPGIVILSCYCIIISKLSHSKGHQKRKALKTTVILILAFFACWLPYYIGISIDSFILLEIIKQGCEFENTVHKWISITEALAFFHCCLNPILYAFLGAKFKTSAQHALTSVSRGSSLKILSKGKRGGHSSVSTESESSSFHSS

B1: bovine antibody BLV1H12 (antibody)
VH: QVQLRESGPSLVKPSQTLSLTCTASGFSLSDKAVGWVRQAPGKALEWLGSIDTGGNTGYNPGLKSRLSITKDNSKSQVSLSVSSVTTEDSATYYCTSVHQETKKYQSCPDGYRERSDCSNRPACGTSDCCRVSVFGNCLTTLPVSYSYTYNYEWHVDVWGQGLLVTVSS
VL: QAVLNQPSSVSGSLGQRVSITCSGSSSNVGNGYVSWYQLIPGSAPRTLIYGDTSRASGVPDRFSGSRSGNTATLTISSLQAEDEADYFCASAEDSSSNAVFGSGTTLTVL
binding result: no binding (tested: 1 μg/mL)
